Reference: patent US20240010722A1 (published 2024)
Changes are numbered by the printed parent chain. Several values for one entry are separate records, joined by “and”; a condition that tells them apart may be missing. Identical values can stand only once. Blank lines part the entries; values can stand above or below the binder they belong to.

Experiments:
cyno MAdCAM [1] = target: T1, cyno MAdCAM (cynomolgus); test: BLI (Octet)
T1 construct: also called cynomolgus MAdCAM

human MAdCAM [2] = target: T2, human MAdCAM (human, UniProt Q13477 19-317, limits assumed); test: BLI (Octet)
T2 construct: also called huMAdCAM; human MAdCAM-1
T2 sequence (looked up): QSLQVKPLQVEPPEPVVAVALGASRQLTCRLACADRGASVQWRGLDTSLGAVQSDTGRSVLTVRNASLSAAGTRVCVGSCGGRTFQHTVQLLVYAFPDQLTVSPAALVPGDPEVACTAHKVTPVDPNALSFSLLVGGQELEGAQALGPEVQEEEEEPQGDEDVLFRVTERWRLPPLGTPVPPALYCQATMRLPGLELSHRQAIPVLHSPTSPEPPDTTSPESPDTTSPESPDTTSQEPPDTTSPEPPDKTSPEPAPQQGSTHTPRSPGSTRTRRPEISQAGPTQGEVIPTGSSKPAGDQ

mouse MAdCAM [3] = target: T3, mouse MAdCAM (mouse, UniProt Q61826 22-365, limits assumed); test: BLI (Octet)
T3 construct: also called mouse MAdCAM-1; muMAdCAM
T3 sequence (looked up): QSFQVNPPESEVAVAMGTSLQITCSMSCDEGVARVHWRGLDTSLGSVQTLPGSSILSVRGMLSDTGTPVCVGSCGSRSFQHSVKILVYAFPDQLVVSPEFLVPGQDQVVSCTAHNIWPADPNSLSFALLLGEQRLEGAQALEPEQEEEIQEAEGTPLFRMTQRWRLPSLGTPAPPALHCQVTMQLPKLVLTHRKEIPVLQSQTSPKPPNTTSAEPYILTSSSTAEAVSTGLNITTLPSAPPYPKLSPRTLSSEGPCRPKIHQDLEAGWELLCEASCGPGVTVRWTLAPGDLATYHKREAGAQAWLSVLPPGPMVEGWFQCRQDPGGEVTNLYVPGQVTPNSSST

cyno MAdCAM [4] = target: T1, cyno MAdCAM; test: BLI (Octet), binder on anti-human Fc tips
human MAdCAM [5] = target: T2, human MAdCAM; test: BLI (Octet), binder on anti-human Fc tips
mouse MAdCAM [6] = target: T3, mouse MAdCAM; test: BLI (Octet), binder on anti-human Fc tips

- Kd (cyno MAdCAM [1]): 49.9 nM
- koff (cyno MAdCAM [1]): 0.0153 s⁻¹
- kon (cyno MAdCAM [1]): 306000 M⁻¹ s⁻¹
- response (cyno MAdCAM [1]): 0.169
- Kd (human MAdCAM [2]): 122 nM
- koff (human MAdCAM [2]): 0.0389 s⁻¹
- kon (human MAdCAM [2]): 320000 M⁻¹ s⁻¹
- response (human MAdCAM [2]): 0.18
- Kd (mouse MAdCAM [3]): 205 nM
- koff (mouse MAdCAM [3]): 0.0558 s⁻¹
- kon (mouse MAdCAM [3]): 272000 M⁻¹ s⁻¹
B1: PMAB57 (bispecific antibody, human IgG1, kappa)
heavy: QVQLVQSGAEVKKPGASVKVSCKASGYSFTTYYMHWVRQAPGQGLEWMGIIAPSGGSTSYAQKFQGRVTMTRDTSTSTVYMELSSLRSEDTAVYYCASGWVYWGQGTLVTVSSASTKGPSVFPLAPSSKSTSGGTAALGCLVKDYFPEPVTVSWNSGALTSGVHTFPAVLQSSGLYSLSSVVTVPSSSLGTQTYICNVNHKPSNTKVDKKVEPKSCDKTHTCPPCPAPEAAGAPSVFLFPPKPKDTLMISRTPEVTCVVVDVSHEDPEVKFNWYVDGVEVHNAKTKPREEQYNSTYRVVSVLTVLHQDWLNGKEYKCKVSNKALPAPIEKTISKAKGQPREPQVYTLPPSREEMTKNQVSLTCLVKGFYPSDIAVEWESNGQPENNYKTTPPVLDSDGSFFLYSKLTVDKSRWQQGNVFSCSVMHEALHNHYTQKSLSLSPGGGGGSGGGGSGGGGSEVQLLESGGGLVQPGGSLRLSCAASGFTFSDFWMHWVRQAPGKGLEWISYISGDSGYTNYADSVKGRFTISRDNSKNTLYLQMNSLRAEDTAVYYCARDRPYYYYMDVWGKGTTVTVSSGGGGSGGGGSGGGGSGGGGSDIQMTQSPSSLSASVGDRVTITCRASQSVSRSLAWYQQKPGKAPKLLIYAASSLQSGVPSRFSGSGSGTDFTLTISSLQPEDFATYYCQQYKSYPVTFGQGTKVEIK
light: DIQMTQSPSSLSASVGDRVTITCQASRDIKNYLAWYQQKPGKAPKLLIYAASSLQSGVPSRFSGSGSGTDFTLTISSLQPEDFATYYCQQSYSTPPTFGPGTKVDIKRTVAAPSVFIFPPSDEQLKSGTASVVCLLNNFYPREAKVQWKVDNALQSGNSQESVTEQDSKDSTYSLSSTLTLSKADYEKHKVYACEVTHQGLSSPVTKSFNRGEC

- Kd (cyno MAdCAM [4]): 153 nM
- Kd (human MAdCAM [5]): 266 nM and 340 nM
- fold lower affinity than parent PRNT1 (human MAdCAM [5]): 10 fold
- koff (human MAdCAM [5]): 0.0738 s⁻¹
- kon (human MAdCAM [5]): 278000 M⁻¹ s⁻¹
B2: MIAB169 (antibody, V domains shown)
VH: EVQLLESGGGLVQPGGSLRLSCAASGFTFSDFWMHWVRQAPGKGLEWISYISGDSGYTNYADSVKGRFTISRDNSKNTLYLQMNSLRAEDTAVYYCARDRPYYYIMDVWGKGTTVTVSS
VL: DIQMTQSPSSLSASVGDRVTITCRASQSVSRSLAWYQQKPGKAPKLLIYAASSLQSGVPSRFSGSGSGTDFTLTISSLQPEDFATYYCQQYKSYPVTFGQGTKVEIK
notes: tested with human Fc; also called MIAB169-CHO; MIAB169-HEK

- Kd (cyno MAdCAM [4]): 26.5 nM
- Kd (human MAdCAM [5]): 38.4 nM
- Kd (mouse MAdCAM [6]): 184 nM
B3: MIAB1 (antibody, V domains shown)
VH: EVQLLESGGGLVQPGGSLRLSCAASGFTFDDYAMHWVRQAPGKGLEWVASITSSSAFIDYADSVKGRFTISRDNSKNTLYLQMNSLRAEDTAVYYCAREPVDWNSYFDLWGQGTLVTVSS
VL: EIVMTQSPATLSVSPGERATLSCRASQGISNSYLAWYQQKPGQAPRLLIYGASTRATGIPARFSGSGSGTEFTLTISSLQSEDFAVYYCQQYYTYPPTFGQGTKVEIK
notes: tested with human Fc

- Kd (cyno MAdCAM [4]): 0.9 nM
B4: MIAB125 (antibody, V domains shown)
VH: EVQLLESGGGLVQPGGSLRLSCAASGFTFSNYAISWVRQAPGKGLEWSDISGSGGTTYYADSVKGRFTISRDNSKNTLYLQMNSLRAEDTAVYYCARERVDWNSYFDLWGQGTLVTVSS
VL: B3 VL
notes: tested with human Fc

- Kd (cyno MAdCAM [4]): 18.8 nM
- Kd (human MAdCAM [5]): 23.2 nM
- Kd (mouse MAdCAM [6]): 147 nM
B5: MIAB2 (antibody, V domains shown)
VH: B3 VH with P100R
VL: B3 VL
notes: tested with human Fc

- Kd (cyno MAdCAM [4]): 68.5 nM
- Kd (human MAdCAM [5]): 48.2 nM
- Kd (mouse MAdCAM [6]): 130 nM
B6: MIAB122 (antibody, V domains shown)
VH: B3 VH with T28I, P100R, N104F
VL: B3 VL with S26C, Q27P, G28S, I29V, S32N, A35V, G51D, Y93S, T94H, Y95W
notes: tested with human Fc

- Kd (cyno MAdCAM [4]): 19.5 nM
- Kd (human MAdCAM [5]): 19.3 nM
- Kd (mouse MAdCAM [6]): 77.5 nM
B7: MIAB12 (antibody, V domains shown)
VH: B3 VH with P100R
VL: B3 VL with S26C, Q27P
notes: tested with human Fc

- Kd (cyno MAdCAM [4]): 11.5 nM
B8: MIAB124 (antibody, V domains shown)
VH: B4 VH with N31T, Y32D, I34M, D49A, T56S, Y59S, E98A, F106N
VL: EIVMTQSPATLSVSPGERATLSCRASQSVNNKLAWYQQKPGQAPRLLIYAASTRATGIPARFSGSGSGTEFTLTISSLQSEDFAVYYCQQYSTWPITFGQGTKVEIK
notes: tested with human Fc
